FireProtDB (doi:10.1016/0014-5793(94)01308-n)
“And” between values parts separate entries of the source, which are not always exact repeats. Equal entries are not always repeated.

Conditions: Sus scrofa, Thermal, DSC, Sodium phosphate 5 mM, reversible: yes, whole UniProt chain shown

B1: Gastricsin wild type, P30879 (protein)
chain: SVIKVPLKKLKSIRQAMKEKGLLEEFLKTHKYDPAQRYRIGDISVALEPMAYLEAAYFGEISIGTPPQNFLVL
Q: Which results are given for B1?
A: Tm (pH 6): 66.2 °C; unfolding enthalpy (calorimetric) (pH 6): 254 kcal/mol; unfolding enthalpy (calorimetric) (pH 6.4): 248 kcal/mol and 269 kcal/mol; Tm (pH 6.8): 47.2 °C; unfolding enthalpy (calorimetric) (pH 6.8): 221 kcal/mol; Tm (pH 7.2): 56.1 °C; unfolding enthalpy (calorimetric) (pH 7.2): 195 kcal/mol; Tm (pH 7.3): 39.8 °C; unfolding enthalpy (calorimetric) (pH 7.3): 192 kcal/mol; Tm (pH 7.7): 55 °C; unfolding enthalpy (calorimetric) (pH 7.7): 173 kcal/mol; Tm (pH 8): 51.1 °C; unfolding enthalpy (calorimetric) (pH 8): 182 kcal/mol; Tm (pH 8.2): 33.8 °C; unfolding enthalpy (calorimetric) (pH 8.2): 170 kcal/mol
